# Measured values published in PMC6449425, “Sterol Regulatory Element-Binding Protein (Sre1) Promotes the Synthesis of Carotenoids and Sterols in Xanthophyllomyces dendrorhous”.
# T1: Sre1 bHLH DNA-binding domain (UniProt A0A5B8KSW3 349-477)
# T1 sequence: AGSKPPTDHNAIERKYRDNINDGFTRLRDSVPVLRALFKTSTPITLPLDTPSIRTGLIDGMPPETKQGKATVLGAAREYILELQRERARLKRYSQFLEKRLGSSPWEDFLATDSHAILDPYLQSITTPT
# How the values were obtained:
# [1] = molecular target: T1, Sre1 bHLH DNA-binding domain; experiment: EMSA; 1.7 nM protein, 0.5 nM probe; single (fast) shifted band; 50 mM Hepes-KOH pH 7.5, 100 mM KCl, 5 mM MgCl2, 1 mM DTT, 20% glycerol, 0.8 mg/ml BSA, 0.3 mg/ml poly(dI-dC), 22°C 30 min; gel 0.5x TBE 4°C; conditions: protein: recombinant; tags: His-tag (pET-TEV, TEV site); chain copies: 2; label: 3' biotin; blunt
# [2] = molecular target: T1, Sre1 bHLH DNA-binding domain; experiment: EMSA; 1.7 nM protein, 0.5 nM probe; two shifted bands; 50 mM Hepes-KOH pH 7.5, 100 mM KCl, 5 mM MgCl2, 1 mM DTT, 20% glycerol, 0.8 mg/ml BSA, 0.3 mg/ml poly(dI-dC), 22°C 30 min; gel 0.5x TBE 4°C; conditions: protein: recombinant; tags: His-tag (pET-TEV, TEV site); chain copies: 2; blunt
# [3] = molecular target: T1, Sre1 bHLH DNA-binding domain; experiment: EMSA; 1.7 nM protein, 0.5 nM probe; no shift; 50 mM Hepes-KOH pH 7.5, 100 mM KCl, 5 mM MgCl2, 1 mM DTT, 20% glycerol, 0.8 mg/ml BSA, 0.3 mg/ml poly(dI-dC), 22°C 30 min; gel 0.5x TBE 4°C; conditions: protein: recombinant; tags: His-tag (pET-TEV, TEV site); chain copies: 2; blunt
Binder,binding result [1],other results
"SRE1+SRE2* (probe C, by order) (dsDNA) DNA 1: CCATCGTCACTCTCGTCTCCTGACCCGTTGGGGCTATAATTCATTTTACGTGACTCCACT DNA 2: AGTGGAGTCACGTAAAATGAATTATAGCCCCAACGGGTCAGGAGACGAGAGTGACGATGG",binds,
"SRE1*+SRE2 (probe B, by order) (dsDNA) DNA 1: CCATCGTCACTCTTTATTCTTTTTCCGTTGGGGCTATGTAACACCACACGTGACTCCACT DNA 2: AGTGGAGTCACGTGTGGTGTTACATAGCCCCAACGGAAAAAGAATAAAGAGTGACGATGG",binds,
probe A (HMGS SRE1+SRE2) (dsDNA) DNA 1: CCATCGTCACTCTCGTCTCCTGACCCGTTGGGGCTATGTAACACCACACGTGACTCCACT DNA 2: AGTGGAGTCACGTGTGGTGTTACATAGCCCCAACGGGTCAGGAGACGAGAGTGACGATGG,,binding result [2]: binds
probe D (SRE1*+SRE2*) (dsDNA) DNA 1: CCATCGTCACTCTTTATTCTTTTTCCGTTGGGGCTATAATTCATTTTACGTGACTCCACT DNA 2: AGTGGAGTCACGTAAAATGAATTATAGCCCCAACGGAAAAAGAATAAAGAGTGACGATGG,,binding result [3]: no binding
